{"source": "patent US20140135264A1", "about": "(CLEVELAND CLINIC FOUNDATION, published 2014)", "key": {"[1]": {"molecular_target": "αvβ3 integrin, wild type, on mouse lung endothelial cells (WT EC) (mouse) (UniProt P43406)", "assay": "flow cytometry, FITC-fibrinogen on WT mouse lung EC, 20 ng/ml VEGF against unstimulated cells (printed as 'at least')"}, "[2]": {"molecular_target": "αvβ3 integrin, wild type, on mouse lung endothelial cells (WT EC) (mouse) (UniProt P43406)", "assay": "flow cytometry, FITC-fibrinogen on WT mouse lung EC, 1 mM MnCl2 against unstimulated cells"}, "[3]": {"molecular_target": "DiYF β3 integrin (αvβ3 with β3 tyrosines 747 and 759 substituted for phenylalanines), on DiYF mouse lung endothelial cells (mouse) (UniProt P43406)", "assay": "flow cytometry, FITC-fibrinogen on DiYF mouse lung EC, 1 mM MnCl2 against unstimulated cells"}, "[4]": {"molecular_target": "DiYF β3 integrin (αvβ3 with β3 tyrosines 747 and 759 substituted for phenylalanines), on DiYF mouse lung endothelial cells (mouse) (UniProt P43406)", "assay": "flow cytometry, FITC-fibrinogen on DiYF mouse lung EC, 20 ng/ml VEGF against unstimulated cells"}, "[5]": {"molecular_target": "αvβ3 integrin, wild type, on mouse lung endothelial cells (WT EC) (mouse) (UniProt P43406)", "assay": "flow cytometry, WOW-1 Fab on WT mouse lung EC, 1 mM MnCl2 against unstimulated cells"}, "[6]": {"molecular_target": "αvβ3 integrin on human endothelial cells (HUVEC; vasculature of human prostate tissue) (human) (UniProt P06756)", "assay": "flow cytometry, WOW-1 Fab on HUVEC, VEGF-A165 against resting cells"}, "[7]": {"molecular_target": "αvβ3 integrin, wild type, on mouse lung endothelial cells (WT EC) (mouse) (UniProt P43406)", "assay": "flow cytometry, WOW-1 Fab on WT mouse lung EC, 20 ng/ml VEGF against unstimulated cells"}, "[8]": {"molecular_target": "DiYF β3 integrin (αvβ3 with β3 tyrosines 747 and 759 substituted for phenylalanines), on DiYF mouse lung endothelial cells (mouse) (UniProt P43406)", "assay": "flow cytometry, WOW-1 Fab on DiYF mouse lung EC, 1 mM MnCl2 against unstimulated cells"}, "[9]": {"molecular_target": "αvβ3 integrin on human endothelial cells (HUVEC; vasculature of human prostate tissue) (human) (UniProt P06756)", "assay": "immunohistochemistry, WOW-1 staining density, prostate carcinoma against normal prostate tissue"}, "[10]": {"molecular_target": "DiYF β3 integrin (αvβ3 with β3 tyrosines 747 and 759 substituted for phenylalanines), on DiYF mouse lung endothelial cells (mouse) (UniProt P43406)", "assay": "flow cytometry, WOW-1 Fab on DiYF mouse lung EC, 20 ng/ml VEGF against unstimulated cells"}, "[11]": {"molecular_target": "VEGF receptor-2 on mouse lung endothelial cells (mouse) (UniProt P35918)", "sequence (P35918 20-1345)": "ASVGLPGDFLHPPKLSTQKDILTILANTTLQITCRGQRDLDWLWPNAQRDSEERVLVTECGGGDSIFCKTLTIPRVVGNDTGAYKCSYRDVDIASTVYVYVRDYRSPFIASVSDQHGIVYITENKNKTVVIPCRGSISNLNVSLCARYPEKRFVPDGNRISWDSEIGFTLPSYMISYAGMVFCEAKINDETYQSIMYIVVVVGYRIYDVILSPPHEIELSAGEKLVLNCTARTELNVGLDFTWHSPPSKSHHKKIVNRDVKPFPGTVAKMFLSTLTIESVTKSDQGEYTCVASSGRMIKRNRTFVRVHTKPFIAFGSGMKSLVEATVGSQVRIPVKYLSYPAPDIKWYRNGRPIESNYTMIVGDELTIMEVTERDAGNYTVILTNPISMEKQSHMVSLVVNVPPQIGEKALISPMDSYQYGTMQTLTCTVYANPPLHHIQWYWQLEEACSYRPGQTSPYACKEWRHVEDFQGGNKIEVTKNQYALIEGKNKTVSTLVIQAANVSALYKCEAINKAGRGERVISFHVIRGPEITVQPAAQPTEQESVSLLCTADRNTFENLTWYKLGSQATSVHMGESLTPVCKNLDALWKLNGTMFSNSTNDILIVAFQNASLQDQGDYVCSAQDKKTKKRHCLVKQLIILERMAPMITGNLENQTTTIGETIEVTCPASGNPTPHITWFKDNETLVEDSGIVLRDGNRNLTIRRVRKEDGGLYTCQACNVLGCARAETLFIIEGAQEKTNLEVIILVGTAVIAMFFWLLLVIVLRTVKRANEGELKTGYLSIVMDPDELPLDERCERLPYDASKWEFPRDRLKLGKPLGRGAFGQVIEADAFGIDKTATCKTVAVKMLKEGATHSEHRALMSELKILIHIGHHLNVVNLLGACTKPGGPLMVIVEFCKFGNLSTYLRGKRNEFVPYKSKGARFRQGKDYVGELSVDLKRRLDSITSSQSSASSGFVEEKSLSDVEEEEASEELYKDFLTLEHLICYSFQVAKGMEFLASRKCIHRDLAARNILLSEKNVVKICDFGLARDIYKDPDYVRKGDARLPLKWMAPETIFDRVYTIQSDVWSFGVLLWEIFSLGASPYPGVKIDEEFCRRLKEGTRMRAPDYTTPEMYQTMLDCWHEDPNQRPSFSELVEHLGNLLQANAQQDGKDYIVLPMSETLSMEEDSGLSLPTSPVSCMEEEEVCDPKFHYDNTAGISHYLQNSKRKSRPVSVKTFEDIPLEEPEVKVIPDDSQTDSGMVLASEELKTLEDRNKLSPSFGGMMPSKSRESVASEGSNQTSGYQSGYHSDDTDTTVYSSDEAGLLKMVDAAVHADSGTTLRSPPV", "assay": "cell-based or functional assay"}, "[12]": {"molecular_target": "DiYF β3 integrin (αvβ3 with β3 tyrosines 747 and 759 substituted for phenylalanines), on DiYF mouse lung endothelial cells (mouse) (UniProt P43406)", "assay": "cell-based or functional assay"}, "[13]": {"molecular_target": "VEGFR-2 on human endothelial cells (HUVEC; vasculature of human prostate tissue) (human, UniProt P35968 20-1356)", "sequence (P35968 20-1356)": "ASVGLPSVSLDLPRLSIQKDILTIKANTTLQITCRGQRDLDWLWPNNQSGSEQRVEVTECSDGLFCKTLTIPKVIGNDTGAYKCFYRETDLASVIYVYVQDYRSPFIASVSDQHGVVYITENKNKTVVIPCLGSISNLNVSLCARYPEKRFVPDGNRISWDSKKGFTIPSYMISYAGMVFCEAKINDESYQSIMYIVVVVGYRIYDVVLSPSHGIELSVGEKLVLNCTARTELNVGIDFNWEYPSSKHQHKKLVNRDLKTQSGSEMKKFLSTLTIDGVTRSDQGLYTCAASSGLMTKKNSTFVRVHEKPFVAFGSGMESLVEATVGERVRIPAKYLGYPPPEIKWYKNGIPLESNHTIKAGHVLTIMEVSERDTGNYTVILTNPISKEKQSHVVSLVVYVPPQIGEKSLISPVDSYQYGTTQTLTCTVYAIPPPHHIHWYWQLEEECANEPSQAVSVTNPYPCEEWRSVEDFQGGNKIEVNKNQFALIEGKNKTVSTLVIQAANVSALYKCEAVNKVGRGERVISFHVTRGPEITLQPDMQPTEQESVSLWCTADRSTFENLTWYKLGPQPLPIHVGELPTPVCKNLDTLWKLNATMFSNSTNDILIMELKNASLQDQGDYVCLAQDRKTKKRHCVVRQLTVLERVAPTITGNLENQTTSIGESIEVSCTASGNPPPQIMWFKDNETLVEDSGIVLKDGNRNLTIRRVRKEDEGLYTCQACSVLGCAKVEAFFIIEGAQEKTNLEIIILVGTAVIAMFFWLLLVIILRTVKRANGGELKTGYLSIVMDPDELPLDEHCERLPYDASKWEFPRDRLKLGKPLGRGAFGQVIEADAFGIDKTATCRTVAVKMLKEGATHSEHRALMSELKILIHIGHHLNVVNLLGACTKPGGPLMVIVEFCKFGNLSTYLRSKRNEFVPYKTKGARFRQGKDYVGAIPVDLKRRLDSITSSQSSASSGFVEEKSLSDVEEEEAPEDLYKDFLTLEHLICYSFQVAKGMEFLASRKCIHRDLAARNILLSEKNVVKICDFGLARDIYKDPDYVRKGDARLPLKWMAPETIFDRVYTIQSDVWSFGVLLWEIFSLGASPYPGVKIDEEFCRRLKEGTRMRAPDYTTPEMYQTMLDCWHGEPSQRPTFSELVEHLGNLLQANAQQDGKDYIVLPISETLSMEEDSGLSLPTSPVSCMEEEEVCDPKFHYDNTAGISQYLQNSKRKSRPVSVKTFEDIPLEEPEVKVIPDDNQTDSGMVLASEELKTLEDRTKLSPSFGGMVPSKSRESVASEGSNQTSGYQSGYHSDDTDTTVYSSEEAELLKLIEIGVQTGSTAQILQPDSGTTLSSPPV", "assay": "cell-based or functional assay"}}}
{"molecule": "Fluorescein isothiocyanate (FITC)-labeled fibrinogen (ligand)", "values": [{"measurement": "fold increase of binding", "setting": "[1]", "result": 6, "unit": "fold"}, {"measurement": "fold increase of binding", "setting": "[2]", "result": "> 40", "unit": "fold"}, {"measurement": "fold increase of binding", "setting": "[3]", "result": 17, "unit": "fold"}, {"measurement": "fold increase of binding", "setting": "[4]", "result": 3, "unit": "fold"}]}
{"molecule": "WOW-1 Fab", "values": [{"measurement": "fold increase of binding", "setting": "[5]", "result": 30, "unit": "fold"}, {"measurement": "fold increase of binding", "setting": "[6]", "result": 6, "unit": "fold"}, {"measurement": "fold increase of binding", "setting": "[7]", "result": 9, "unit": "fold"}, {"measurement": "fold increase of binding", "setting": "[8]", "result": 14, "unit": "fold"}, {"measurement": "fold increase of WOW-1 density", "setting": "[9]", "result": 2.7, "unit": "fold"}, {"measurement": "fold increase of binding", "setting": "[10]", "result": 3.5, "unit": "fold"}]}
{"molecule": "VEGF-A165 (ligand)", "values": [{"measurement": "VEGFR-2 phosphorylation in DiYF EC (immunoprecipitation, anti-phosphotyrosine blot)", "setting": "[11]", "result": 2.5, "unit": "fold"}, {"measurement": "VEGFR-2 phosphorylation in WT EC (immunoprecipitation, anti-phosphotyrosine blot)", "setting": "[11]", "result": 6, "unit": "fold"}]}
{"molecule": "vitronectin (ligand)", "values": [{"measurement": "fold decrease in adhesion of DiYF EC to vitronectin-coated wells, against WT EC", "setting": "[12]", "result": 2, "unit": "fold"}, {"measurement": "fold decrease in spreading of DiYF EC on vitronectin-coated wells, against WT EC", "setting": "[12]", "result": 4, "unit": "fold"}]}
{"molecule": "αvβ3 integrin on human endothelial cells (HUVEC; vasculature of human prostate tissue) (receptor) chain 1: FNLDVDSPAEYSGPEGSYFGFAVDFFVPSASSRMFLLVGAPKANTTQPGIVEGGQVLKCDWSSTRRCQPIEFDATGNRDYAKDDPLEFKSHQWFGASVRSKQDKILACAPLYHWRTEMKQEREPVGTCFLQDGTKTVEYAPCRSQDIDADGQGFCQGGFSIDFTKADRVLLGGPGSFYWQGQLISDQVAEIVSKYDPNVYSIKYNNQLATRTAQAIFDDSYLGYSVAVGDFNGDGIDDFVSGVPRAARTLGMVYIYDGKNMSSLYNFTGEQMAAYFGFSVAATDINGDDYADVFIGAPLFMDRGSDGKLQEVGQVSVSLQRASGDFQTTKLNGFEVFARFGSAIAPLGDLDQDGFNDIAIAAPYGGEDKKGIVYIFNGRSTGLNAVPSQILEGQWAARSMPPSFGYSMKGATDIDKNGYPDLIVGAFGVDRAILYRARPVITVNAGLEVYPSILNQDNKTCSLPGTALKVSCFNVRFCLKADGKGVLPRKLNFQVELLLDKLKQKGAIRRALFLYSRSPSHSKNMTISRGGLMQCEELIAYLRDESEFRDKLTPITIFMEYRLDYRTAADTTGLQPILNQFTPANISRQAHILLDCGEDNVCKPKLEVSVDSDQKKIYIGDDNPLTLIVKAQNQGEGAYEAELIVSIPLQADFIGVVRNNEALARLSCAFKTENQTRQVVCDLGNPMKAGTQLLAGLRFSVHQQSEMDTSVKFDLQIQSSNLFDKVSPVVSHKVDLAVLAAVEIRGVSSPDHVFLPIPNWEHKENPETEEDVGPVVQHIYELRNNGPSSFSKAMLHLQWPYKYNNNTLLYILHYDIDGPMNCTSDMEINPLRIKISSLQTTEKNDTVAGQGERDHLITKRDLALSEGDIHTLGCGVAQCLKIVCQVGRLDRGKSAILYVKSLLWTETFMNKENQNHSYSLKSSASFNVIEFPYKNLPIEDITNSTLVTTNVTWGIQPAPMPVPVWVIILAVLAGLLLLAVLVFVMYRMGFFKRVRPPQEEQEREQLQPHENGEGNSET chain 2: GPNICTTRGVSSCQQCLAVSPMCAWCSDEALPLGSPRCDLKENLLKDNCAPESIEFPVSEARVLEDRPLSDKGSGDSSQVTQVSPQRIALRLRPDDSKNFSIQVRQVEDYPVDIYYLMDLSYSMKDDLWSIQNLGTKLATQMRKLTSNLRIGFGAFVDKPVSPYMYISPPEALENPCYDMKTTCLPMFGYKHVLTLTDQVTRFNEEVKKQSVSRNRDAPEGGFDAIMQATVCDEKIGWRNDASHLLVFTTDAKTHIALDGRLAGIVQPNDGQCHVGSDNHYSASTTMDYPSLGLMTEKLSQKNINLIFAVTENVVNLYQNYSELIPGTTVGVLSMDSSNVLQLIVDAYGKIRSKVELEVRDLPEELSLSFNATCLNNEVIPGLKSCMGLKIGDTVSFSIEAKVRGCPQEKEKSFTIKPVGFKDSLIVQVTFDCDCACQAQAEPNSHRCNNGNGTFECGVCRCGPGWLGSQCECSEEDYRPSQQDECSPREGQPVCSQRGECLCGQCVCHSSDFGKITGKYCECDDFSCVRYKGEMCSGHGQCSCGDCLCDSDWTGYYCNCTTRTDTCMSSNGLLCSGRGKCECGSCVCIQPGSYGDTCEKCPTCPDACTFKKECVECKKFDRGALHDENTCNRYCRDEIESVKELKDTGKDAVNCTYKNEDDCVVRFQYYEDSSGKSILYVVEEPECPKGPDILVVLLSVMGAILLIGLAALLIWKLLITIHDRKEFAKFEEERARAKWDTANNPLYKEATSTFTNITYRGT", "values": [{"measurement": "fold decrease in VEGFR-2 phosphorylation in response to VEGF in HUVEC after β3 siRNA", "setting": "[13]", "result": "~3", "unit": "fold"}]}
